Data published in PMC3642328, “Ataxia Telangiectasia-Mutated (ATM) Kinase Activity Is Regulated by ATP-driven Conformational Changes in the Mre11/Rad50/Nbs1 (MRN) Complex*^([image sbox.jpg])” (The Journal of Biological Chemistry, 2013).
Where “and” joins values, the source holds several entries; their conditions need not be identical. Equal entries are not always repeated.

B1: Nbs1 (wild-type) (natural protein, human, UniProt O60934 1-754, looked up)
chain: MWKLLPAAGPAGGEPYRLLTGVEYVVGRKNCAILIENDQSISRNHAVLTANFSVTNLSQTDEIPVLTLKDNSKYGTFVNEEKMQNGFSRTLKSGDGITFGVFGSKFRIEYEPLVACSSCLDVSGKTALNQAILQLGGFTVNNWTEECTHLVMVSVKVTIKTICALICGRPIVKPEYFTEFLKAVESKKQPPQIESFYPPLDEPSIGSKNVDLSGRQERKQIFKGKTFIFLNAKQHKKLSSAVVFGGGEARLITEENEEEHNFFLAPGTCVVDTGITNSQTLIPDCQKKWIQSIMDMLQRQGLRPIPEAEIGLAVIFMTTKNYCDPQGHPSTGLKTTTPGPSLSQGVSVDEKLMPSAPVNTTTYVADTESEQADTWDLSERPKEIKVSKMEQKFRMLSQDAPTVKESCKTSSNNNSMVSNTLAKMRIPNYQLSPTKLPSINKSKDRASQQQQTNSIRNYFQPSTKKRERDEENQEMSSCKSARIETSCSLLEQTQPATPSLWKNKEQHLSENEPVDTNSDNNLFTDTDLKSIVKNSASKSHAAEKLRSNKKREMDDVAIEDEVLEQLFKDTKPELEIDVKVQKQEEDVNVRKRPRMDIETNDTFSDEAVPESSKISQENEIGKKRELKEDSLWSAKEISNNDKLQDDSEMLPKKLLLTEFRSLVIKNSTSRNPSGINDDYGQLKNFKKFKKVTYPGAGKLPHIIGGSDLIAHHARKNTELEEWLRQEMEVQNQHAKEESLADDLFRYNPYLKRRR
notes: wild-type Nbs1, component of the human MRN complex; expressed from transfer vector pTP288 / bacmid pTP291; Used apart from MR (added to MR complexes, coated on PMMA beads); source: Sf21 insect cells, baculovirus, purified

Legend:
[1] = biological target: Mre11/Rad50 (MR) complex, wild-type full-length (human) (UniProt P49959); test: scanning force microscopy (SFM); protein alone: 3 nM human MR in 25 mM Tris-HCl pH 8.0, 10% glycerol, 100 mM NaCl, 1 mM DTT; diluted 5-fold in 10 mM HEPES pH 8.0, 20 mM MgCl2, deposited on mica, imaged in air by tapping mode; forms counted by the number of Rad50 coiled-coils
ATM = biological target: T1, ATM (Homo sapiens, UniProt Q13315, Y2755A); test: kinase assay, GST-p53 Ser-15 phosphorylation, Western blot; type: biochemical; details: H2O2-activated ATM without MRN; analog 1 mM; pH 7.5, 5 mM Mg, 30 C
T1 construct: full-length, Flag-tagged and HA-tagged, transiently expressed in human 293T cells, purified as dimer
T1 sequence (Q13315 2-3056 Y2755A): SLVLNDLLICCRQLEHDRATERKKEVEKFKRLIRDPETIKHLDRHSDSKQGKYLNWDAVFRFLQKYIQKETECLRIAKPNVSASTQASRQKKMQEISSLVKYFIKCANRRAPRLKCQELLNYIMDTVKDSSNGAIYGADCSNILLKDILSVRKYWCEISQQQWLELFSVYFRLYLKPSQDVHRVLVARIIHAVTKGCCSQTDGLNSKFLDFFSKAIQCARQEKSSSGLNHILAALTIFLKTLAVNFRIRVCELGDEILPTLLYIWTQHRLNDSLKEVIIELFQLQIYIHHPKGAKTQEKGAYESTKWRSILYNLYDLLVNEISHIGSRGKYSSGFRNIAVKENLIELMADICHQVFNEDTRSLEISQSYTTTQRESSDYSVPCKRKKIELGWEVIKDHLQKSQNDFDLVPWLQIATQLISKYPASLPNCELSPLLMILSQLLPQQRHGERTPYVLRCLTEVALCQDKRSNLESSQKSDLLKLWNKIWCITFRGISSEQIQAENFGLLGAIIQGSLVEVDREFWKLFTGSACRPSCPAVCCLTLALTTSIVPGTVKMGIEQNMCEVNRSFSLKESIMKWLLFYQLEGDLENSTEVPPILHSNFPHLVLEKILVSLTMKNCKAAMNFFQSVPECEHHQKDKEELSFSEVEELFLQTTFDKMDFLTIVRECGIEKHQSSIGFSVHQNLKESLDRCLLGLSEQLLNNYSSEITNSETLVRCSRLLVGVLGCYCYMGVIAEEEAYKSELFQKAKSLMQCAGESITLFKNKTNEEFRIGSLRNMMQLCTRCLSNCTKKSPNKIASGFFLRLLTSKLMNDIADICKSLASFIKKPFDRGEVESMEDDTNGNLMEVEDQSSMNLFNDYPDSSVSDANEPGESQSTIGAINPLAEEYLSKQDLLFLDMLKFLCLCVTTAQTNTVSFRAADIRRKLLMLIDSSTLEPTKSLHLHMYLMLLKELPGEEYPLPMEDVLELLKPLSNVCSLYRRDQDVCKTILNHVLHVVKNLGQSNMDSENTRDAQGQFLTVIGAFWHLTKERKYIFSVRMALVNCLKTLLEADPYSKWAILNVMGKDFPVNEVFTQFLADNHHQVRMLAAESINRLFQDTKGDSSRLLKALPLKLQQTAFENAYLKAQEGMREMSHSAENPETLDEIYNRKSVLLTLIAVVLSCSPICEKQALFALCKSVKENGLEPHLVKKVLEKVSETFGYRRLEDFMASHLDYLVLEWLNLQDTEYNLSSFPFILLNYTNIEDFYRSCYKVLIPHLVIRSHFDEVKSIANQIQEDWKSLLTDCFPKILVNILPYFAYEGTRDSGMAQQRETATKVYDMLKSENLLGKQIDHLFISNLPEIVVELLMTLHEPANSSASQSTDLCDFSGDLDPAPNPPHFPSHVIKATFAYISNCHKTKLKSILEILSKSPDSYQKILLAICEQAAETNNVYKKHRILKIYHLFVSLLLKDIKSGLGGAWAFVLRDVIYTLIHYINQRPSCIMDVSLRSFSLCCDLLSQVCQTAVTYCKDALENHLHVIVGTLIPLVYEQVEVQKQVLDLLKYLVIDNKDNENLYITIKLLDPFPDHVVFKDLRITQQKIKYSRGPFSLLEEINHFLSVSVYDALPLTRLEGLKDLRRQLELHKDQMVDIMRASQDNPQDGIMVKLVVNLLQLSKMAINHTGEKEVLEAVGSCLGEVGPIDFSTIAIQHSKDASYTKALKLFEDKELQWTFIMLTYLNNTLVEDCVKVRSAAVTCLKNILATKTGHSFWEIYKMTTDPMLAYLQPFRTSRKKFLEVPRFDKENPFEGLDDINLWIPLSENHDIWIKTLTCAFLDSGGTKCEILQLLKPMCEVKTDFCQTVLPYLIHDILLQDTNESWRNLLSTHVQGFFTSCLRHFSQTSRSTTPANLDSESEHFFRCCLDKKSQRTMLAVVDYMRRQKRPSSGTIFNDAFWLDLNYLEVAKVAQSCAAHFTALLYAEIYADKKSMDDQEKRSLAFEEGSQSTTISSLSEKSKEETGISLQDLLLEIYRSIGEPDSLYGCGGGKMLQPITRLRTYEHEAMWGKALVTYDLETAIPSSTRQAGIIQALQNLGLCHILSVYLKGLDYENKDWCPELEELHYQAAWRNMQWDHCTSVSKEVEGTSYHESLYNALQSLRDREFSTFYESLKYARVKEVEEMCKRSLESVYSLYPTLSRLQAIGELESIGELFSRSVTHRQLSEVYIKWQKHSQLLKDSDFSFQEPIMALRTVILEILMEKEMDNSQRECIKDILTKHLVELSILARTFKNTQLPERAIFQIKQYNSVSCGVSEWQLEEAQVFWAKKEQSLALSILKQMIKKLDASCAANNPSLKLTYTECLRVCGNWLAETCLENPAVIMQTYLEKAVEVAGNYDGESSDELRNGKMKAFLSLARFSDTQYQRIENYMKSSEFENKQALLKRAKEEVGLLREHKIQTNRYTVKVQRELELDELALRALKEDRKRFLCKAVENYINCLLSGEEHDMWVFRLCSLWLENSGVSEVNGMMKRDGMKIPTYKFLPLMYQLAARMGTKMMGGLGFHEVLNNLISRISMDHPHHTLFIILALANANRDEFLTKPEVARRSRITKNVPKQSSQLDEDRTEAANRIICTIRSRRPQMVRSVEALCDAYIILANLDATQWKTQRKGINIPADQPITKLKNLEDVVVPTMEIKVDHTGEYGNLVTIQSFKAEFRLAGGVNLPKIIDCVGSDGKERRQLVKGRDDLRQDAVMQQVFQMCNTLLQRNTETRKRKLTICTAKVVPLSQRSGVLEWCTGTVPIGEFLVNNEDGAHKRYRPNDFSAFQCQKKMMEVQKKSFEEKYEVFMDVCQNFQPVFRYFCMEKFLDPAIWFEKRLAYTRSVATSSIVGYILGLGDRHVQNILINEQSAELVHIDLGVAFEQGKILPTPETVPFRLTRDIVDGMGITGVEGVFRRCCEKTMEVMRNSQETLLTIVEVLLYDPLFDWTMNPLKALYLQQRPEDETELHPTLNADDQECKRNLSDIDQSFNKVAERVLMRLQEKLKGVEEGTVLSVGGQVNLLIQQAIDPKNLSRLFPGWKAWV

[2] = biological target: T2, Mre11/Rad50 (MR) complex, wild-type full-length (human, UniProt P49959 1-708; Q92878 1-1312); test: KinExA (kinetic exclusion assay); without ATP; 1, 5 and 25 nM MR incubated with 6.1 pM to 400 nM Nbs1 (2-fold dilutions) 1 h at room temperature; free MR captured on Nbs1-coated PMMA beads, detected with anti-Mre11 and Cy5 secondary antibody; PBS; n-Curve Analysis; details: both partners purified
T2 construct: wild-type human Mre11, transfer vector pTP813 / bacmid pTP814; wild-type human Rad50, transfer vector pTP11; 1312 residues by the printed construct limits; The unit written here is one Mre11 with one Rad50; also called wild-type MR; human MR; source: Sf21 insect cells, coexpression with baculovirus, purified

[3] = biological target: T3, Mre11/Rad50(C2G) complex (Rad50 C681G/C684G) (human, UniProt P49959 1-708; Q92878 1-1312, C681G | C684G); test: +ATP
[4] = biological target: T3, Mre11/Rad50(C2G) complex (Rad50 …; test: -ATP
[5] = biological target: T2, Mre11/Rad50 (MR) complex, wild-type …; test: KinExA (kinetic exclusion assay); in the presence of ATP (concentration not stated); 1, 5 and 25 nM MR incubated with 6.1 pM to 400 nM Nbs1 (2-fold dilutions) 1 h at room temperature; free MR captured on Nbs1-coated PMMA beads, detected with anti-Mre11 and Cy5 secondary antibody; PBS; n-Curve Analysis; details: both partners purified
[6] = biological target: T4, Mre11/Rad50(C2G) complex (Rad50 C681G/C684G) (human, UniProt P49959 1-708; Q92878 1-1312, C681G | C684G); test: as above; details: both partners purified
T4 construct: wild-type human Mre11 (pTP813), as the Mre11 chain of m2; human Rad50 with both zinc hook cysteines mutated; made by QuikChange mutagenesis from pTP11 (the wild-type Rad50 of m2); Zinc hook mutant; also called MR(C2G); C2G MR complex; source: Sf21 insect cells, coexpression with baculovirus, purified

Nbs1 (wild-type) [7] = biological target: B1; test: KinExA (kinetic exclusion assay); without ATP; 1, 5 and 25 nM MR incubated with 6.1 pM to 400 nM Nbs1 (2-fold dilutions) 1 h at room temperature; free MR captured on Nbs1-coated PMMA beads, detected with anti-Mre11 and Cy5 secondary antibody; PBS; n-Curve Analysis; details: both partners purified
Nbs1 (wild-type) [8] = biological target: B1; test: KinExA (kinetic exclusion assay); in the presence of ATP (concentration not stated); 1, 5 and 25 nM MR incubated with 6.1 pM to 400 nM Nbs1 (2-fold dilutions) 1 h at room temperature; free MR captured on Nbs1-coated PMMA beads, detected with anti-Mre11 and Cy5 secondary antibody; PBS; n-Curve Analysis; details: both partners purified
[9] = biological target: Mre11/Rad50/Nbs1 (MRN) wild-type (human, UniProt P49959;Q92878;O60934 1-708;1-1312;1-754); test: EMSA; 0.5 mM AMP-PNP, 5 mM MgCl2, Nbs1 present, 100-200 nM MR; EMSA (Fig. 6A): 10 nM DNA, 25 mM MOPS pH 7.0, 20 mM Tris pH 8.0, 5 mM MgCl2, 8% glycerol, 80 mM NaCl, 2 mM DTT, 0.5 mM AMP-PNP, temperature not stated; SFM: 25; details: protein: recombinant; chain copies: 2;2;2; label: Cy5 at 3' end of TP2109; 41 bp duplex, 4 nt 3' overhang on strand 2, other end blunt
MR(C2G)N = MR(C2G)N (human, UniProt P49959;Q92878;O60934 1-708;1-1312;1-754, C681G;C684G;Rad50); test: EMSA; 0.5 mM AMP-PNP, 5 mM MgCl2, Nbs1 present; altered mobility and complex formation efficiency vs WT; EMSA (Fig. 6A): 10 nM DNA, 25 mM MOPS pH 7.0, 20 mM Tris pH 8.0, 5 mM MgCl2, 8% glycerol, 80 mM NaCl, 2 mM DTT, 0.5 mM AMP-PNP, temperature not stated; SFM: 25; details: protein: recombinant; chain copies: 2;2;1; label: Cy5 at 3' end of TP2109; 41 bp duplex, 4 nt 3' overhang on strand 2, other end blunt

With “Mre11/Rad50 (MR) complex, wild-type full-length, P49959 1-708; Q92878 1-1312” the stoichiometry N [1] was 2 and > 4.

`O=P(O)(O)OP(=O)(O)OP(=O)(O)OC[C@H]1O[C@@H](n2cnc3c(NCc4ccco4)ncnc32)[C@H](O)[C@@H]1O` [N6-(furfuryl)-ATP, N6-furfuryladenosine-5′-O-triphosphate] was tested, and the “kinase assay, GST-p53 Ser-15 phosphorylation, Western blot” value (ATM) was “This nucleotide was utilized by Y2755A ATM but not by wild-type ATM”.

With B1 the Kd [2] was 0.00917 nM, the Kd [3] was 0.11 nM and the Kd [4] was 7.3 nM. For the same molecule, the Kd [5] was 0.00382 nM and the “fold higher affinity in the presence of ATP than in the absence of ATP” value [6] was about 70 fold.

B2: Mre11/Rad50(DelCC) complex (Rad50 coiled-coil region replaced with a linker) (complex, human)
chain 1: MSTADALDDENTFKILVATDIHLGFMEKDAVRGNDTFVTLDEILRLAQENEVDFILLGGDLFHENKPSRKTLHTCLELLRKYCMGDRPVQFEILSDQSVNFGFSKFPWVNYQDGNLNISIPVFSIHGNHDDPTGADALCALDILSCAGFVNHFGRSMSVEKIDISPVLLQKGSTKIALYGLGSIPDERLYRMFVNKKVTMLRPKEDENSWFNLFVIHQNRSKHGSTNFIPEQFLDDFIDLVIWGHEHECKIAPTKNEQQLFYISQPGSSVVTSLSPGEAVKKHVGLLRIKGRKMNMHKIPLHTVRQFFMEDIVLANHPDIFNPDNPKVTQAIQSFCLEKIEEMLENAERERLGNSHQPEKPLVRLRVDYSGGFEPFSVLRFSQKFVDRVANPKDIIHFFRHREQKEKTGEEINFGKLITKPSEGTTLRVEDLVKQYFQTAEKNVQLSLLTERGMGEAVQEFVDKEEKDAIEELVKYQLEKTQRFLKERHIDALEDKIDEEVRRFRETRQKNTNEEDDEVREAMTRARALRSQSEESASAFSADDLMSIDLAEQMANDSDDSISAATNKGRGRGRGRRGGRGQNSASRGGSQRGRADTGLETSTRSRNSKTAVSASRNMSIIDAFKSTRQQPSRNVTTKNYSEVIEVDESDVEEDIFPTTSKTDQRWSSTSSSKIMSQSQVSKGVDFESSEDDDDDPFMNTSSLRRNRR
chain 2: MSRIEKMSILGVRSFGIEDKDKQIITFFSPLTILVGPNGAGKTTIIECLKYICTGDFPPGTKGNTFVHDPKVAQETDVRAQIRLQFRDVNGELIAVQRSMVCTQKSKKTEFKTLEGVITRTKHGEKVSLSSKCAEIDREMISSLGVSKAVLNNVIFCHQEDSNWPLSEGKALKQKFDEIFSATRYIKALETLRQVRQTQGQKVKEYQMELKYLKQYPPAAAGGYREMMIVMRTTELVNKDLDIYYKTLDQAIMKFHSMKMEEINKIIRDLWRSTYRGQDIEYIEIRSDADENVSASDKRRNYNYRVVMLKGDTALDMRGRCSAGQKVLASLIIRLALAETFCLNCGIIALDEPTTNLDRENIESLAHALVEIIKSRSQQRNFQLLVITHDEDFVELLGRSEYVEKFYRIKKNIDQCSEIVKCSVSSLGFNVH
notes: wild-type human Mre11 (pTP813), as the Mre11 chain of m2; human Rad50 N terminus, amino acids 1-216; linker peptide between the two Rad50 domains; human Rad50 C terminus, amino acids 1104-1312; The His tag is inferred from the vector name only; also called MR(DelCC); DelCC MR; source: Sf21 insect cells, coexpression with baculovirus (Bac-to-Bac), purified
With B2 the Kd (Nbs1 (wild-type) [7]) was 17.7 nM and the Kd (Nbs1 (wild-type) [8]) was 0.0503 nM.

B3: TP2151/TP2109 (dsDNA)
DNA 1: CTTGCATGCCTCAGCTATTCCGGATTATTCATACCGTCCCA
DNA 2: TGGGACGGTATGAATAATCCGGAATAGCTGAGGCATGCAAGTCTA
B3: binds [9]; binds (MR(C2G)N).
